The values that follow come from patent US20040014178A1 (published 2004).

Experiment [1] has as its target T1, human recombinant von Willebrand factor (human, UniProt P04275 764-2813).
T1 construct: also called rvWf; rvWF
As to the kind of experiment: phagemid clone isolated by panning the S. lugdunensis library against vWF.

In experiment [2] the target is T1, human recombinant von Willebrand factor. Put plainly: blot of vWb on nitrocellulose probed with 125I-labelled vWF.

B1: phagemid clone SlvW2 (vWbl fragment displayed on phagemid particles) (other)
chain: GNEVQETEEGTHDAPGIIGDKWQYTGQTTTEDGITTHIYQRIQSEIPNEAPQETPVALEVTRYVDSEGN
Regarding B1, the binding result in experiment [1] is on record as “binds”.

B2: vWb (von Willebrand factor binding protein) from S. aureus, wild type secreted protein (other)
chain: VVSGEKNPYVSESLKLTNNKNKSRTVEEYKKSLDDLIWSFPNLDNERFDNPEYKEAMKKYQQRFMAEDEALKKFFSEEKKIKNGNTDNLDYLGLSHERYESVFNTLKKQSEEFLKEIEDIKKDNPELKDFNEEEQLKCDLELNKLENQILMLGKTFYQNYRDDVESLYSKLDLIMGYKDEERANKKAVNKRMLENKKEDLETIIDEFFSDIDKTRPNNIPVLEDEKQEEKNHKNMAQLKSDTEAAKSDESKRSKRSKRSLNTQNHKPASQEVSEQQKAEYDKRAEERKARFLDNQKIKKTPVVSLEYDFEHKQRIDNENDKKLVVSAPTKKPTSPTTYTETTTQVPMPTVERQTQQQIIYNAPKQLAGLNGESHDFTTTHQSPTTSNHTHNNVVEFEETSALPGRKSGSLVGISQIDSSHLTEREKRVIKREHVREAQKLVDNYKDTHSYKDRINAQQKVNTLSEGHQKRFNKQINKVYNGK
notes: Purified from the culture supernatant of S. aureus Newman with the Eap gene deleted; also called wild type vWb; purified secreted vWb protein
On to B2, for which the binding result in experiment [2] is given as “binds”.
